Source: patent US7422862B2, “Methods for identifying modulators of apoptosis” (The Burnham Institute, priority 2001, dated 2008)

What was measured:
[1] = tested on: HCT116 parental cells; assay: STS-induced apoptosis in HCT116 parental cells; assay type: cell-based, human
[2] = target: T1, RFP-Bax (Homo sapiens, UniProt Q07812); assay: Cellular co-localization in Cos-7 cells (confocal microscope); assay type: cell-based
T1 construct: expressed in transfected cells; host or cells: Cos-7
Excerpt: GFP-HN and a Red Fluorecence Protein (RFP) vector, RFP-Bax, were transfected into Cos-7 cells. The intracellular localization of the expressed polypeptides was examined using a confocal microscope. […] GFP-HN localized to punctate intracellular membranes and when GFP-HN and RFP-Bax were co-expressed, the two polypeptides co-localized to intracellular membranes (data not shown).

[3] = tested on: Bax; assay: Bax-induced lethality in yeast; assay type: cell-based, S. cerevisiae; conditions: TAD-fusion polypeptide, galactose-induced Bax
[4] = target: T2, t-Bid (Homo sapiens, UniProt P55957); assay: Bid-induced apoptosis in CSM14.1 cells (DAPI staining); assay type: cell-based; parameters: expressed in transfected cells; host or cells: CSM14.1 rat hippocampal neuronal cells; conditions: 24 hours after transfection
T2 sequence (P55957 61-195 limits assumed): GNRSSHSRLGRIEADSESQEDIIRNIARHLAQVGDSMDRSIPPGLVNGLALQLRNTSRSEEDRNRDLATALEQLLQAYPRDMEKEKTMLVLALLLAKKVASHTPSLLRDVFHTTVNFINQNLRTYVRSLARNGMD
Method: Apoptosis was examined by DAPI staining. The data shown were obtained using the cytosolic form of Humanin; however, both cytosolic and mitochondrial forms of Humanin were tested and the results were the same.
Rat neuronal cell line CSM14.1 cells were transfected with various plasmids using the Lipofectamine reagent (Invitrogen). For transfection, 10×10^5 cells were plated per well using 6 well plates. Each well received 1 μg DNA plus […] of Lipofectamine. After 24 hours of transfection, the percentage of cell death was determined using 4′-6-diamidino-2-phenylindole (DAPI) staining. […] The data shown were obtained using the cytosolic form of Humanin; however, both cytosolic and mitochondrial forms of Humanin were tested and the results were the same.

[5] = target: T3, Bax (S184K) (Mus musculus, UniProt Q07813, S184K); assay: Yeast two-hybrid assay; assay type: binding; conditions: EGY48 cells, pGilda-Bax (S184K) and pYESTrp-Humanin
T3 construct: expressed in transfected cells; host or cells: S. cerevisiae EGY48
Excerpt: A yeast two-hybrid system is designed to screen a cDNA library for a gene encoding a polypeptide that interacts with a known target (bait) polypeptide (Golemis, et al., In Current Protocols in Molecular Biology, John Wiley & Sons, Inc., Ch.20.0 and 20.1.(1996); Mendelsohn and Brent, Current Opinion in Biotechnology 5:482-486 (1994)). In this experiment, a S184K (a serine at position 184 in the transmembrane domain mutated to a lysine) mutant of mouse Bax was used as a bait, since the wild type Bax induces cell death in yeast.
Bax (S184K) cDNA was constructed in a pgilda yeast expression vector at EcoRV Xhol sites, producing a LexA-Bax fusion polypeptide. The prokaryotic LexA polypeptide, which functions as the DNA binding domain and binds to LexA operators, was used. A human adult testes cDNA library in a pYESTrp vector was purchased from Invitrogen. This library contains library cDNA fused with a B42 transcription activation domain (an 88-residue acidic E. coli peptide). The pGilda-Bax (S184K) and cDNA library plasmids were co-transfected into EGY48 yeast cells together with a reporter plasmid pSH18-34. The transformants were cultured on leucine-deficient galactose-containing media, which induces gene expression through the GAL1 promoter located within both the pGilda and pYESTrp vectors. […]

T3 sequence (Q07813 whole entry S184K): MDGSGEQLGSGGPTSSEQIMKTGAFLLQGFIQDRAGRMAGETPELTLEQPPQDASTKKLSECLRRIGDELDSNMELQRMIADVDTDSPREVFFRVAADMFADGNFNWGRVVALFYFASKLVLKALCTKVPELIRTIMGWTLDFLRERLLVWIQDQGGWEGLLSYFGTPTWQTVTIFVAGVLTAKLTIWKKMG
T1 sequence (Q07812 whole entry): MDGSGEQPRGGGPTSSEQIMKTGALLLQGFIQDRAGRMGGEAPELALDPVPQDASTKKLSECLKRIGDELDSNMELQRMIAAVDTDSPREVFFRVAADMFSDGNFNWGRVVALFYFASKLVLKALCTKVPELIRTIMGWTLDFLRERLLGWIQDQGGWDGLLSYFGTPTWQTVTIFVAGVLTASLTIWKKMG

Substance | reduction of percentage of cells undergoing STS-induced apoptosis [1] | co-localization with RFP-Bax [2] | rescue of yeast from Bax-induced lethality [3] | Bid-induced apoptosis [4] | yeast growth on Leu-deficient media (two-hybrid interaction) [5]
GFP-HN: Wild-type full-length Humanin fused to Green Fluorescent Protein | about half | co-localized |  |  | 
Humanin: 24 amino acid polypeptide, cytosolic form of human Humanin (SEQ ID NO:2); used as synthetic peptide or expressed fusion |  |  | rescued | decreased | grew on Leu-media
